{"source": "patent US5861377", "about": "“Antistasin type serine protease inhibitors” (Novartis AG, dated 1999)", "experiment_in_all_cases": "enzyme inhibition at equilibrium, steady state velocities fitted to the equation for tight binding inhibitors", "key": {"bovine trypsin": {"target": "bovine trypsin (bovine, UniProt P00760)"}, "bovine chymotrypsin": {"target": "bovine chymotrypsin (bovine, UniProt P00766)"}, "human cathepsin G": {"target": "human cathepsin G (human, UniProt P08311)"}, "[1]": {"target": "porcine tissue kallikrein (porcine, UniProt P00752)"}, "human plasmin": {"target": "human plasmin (human, UniProt P00747)"}}, "note": "No end group written: not given here."}
{"binder": "hirustasin (Hirudo antistasin) (other, not fully specified; cysteine pairing not given here) TQGNTCGGETCSAAQVCLKGKCVCNEVHCRIRCKYGLKKDENGCEYPCSCAKASQ", "values": [{"measurement": "Ki", "setting": "bovine trypsin", "value": 7, "unit": "nM"}, {"measurement": "Ki", "setting": "bovine chymotrypsin", "value": 6.4, "unit": "nM"}, {"measurement": "Ki", "setting": "human cathepsin G", "value": 2.9, "unit": "nM"}, {"measurement": "Ki", "setting": "[1]", "value": 13, "unit": "nM"}, {"measurement": "Ki", "setting": "human plasmin", "value": 138, "unit": "nM"}]}
